The labels stand for the following.
T1: MBP-NobZIP77 (Nannochloropsis oceanica, UniProt A0A8F2IEU3 1-466)
T1 sequence: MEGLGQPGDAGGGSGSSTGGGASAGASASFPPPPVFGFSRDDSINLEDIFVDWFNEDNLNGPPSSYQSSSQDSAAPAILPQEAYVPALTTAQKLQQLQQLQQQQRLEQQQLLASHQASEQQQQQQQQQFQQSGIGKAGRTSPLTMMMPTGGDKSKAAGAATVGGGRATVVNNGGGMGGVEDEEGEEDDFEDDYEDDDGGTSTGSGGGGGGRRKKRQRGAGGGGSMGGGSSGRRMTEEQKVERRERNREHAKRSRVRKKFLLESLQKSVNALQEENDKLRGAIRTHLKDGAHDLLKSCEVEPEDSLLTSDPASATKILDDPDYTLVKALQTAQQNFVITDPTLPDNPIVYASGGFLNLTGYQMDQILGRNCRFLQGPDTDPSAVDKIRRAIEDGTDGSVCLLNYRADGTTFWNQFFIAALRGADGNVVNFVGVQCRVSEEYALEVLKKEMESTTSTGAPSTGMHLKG

B1: g10411 (lipase; also written g10041) promoter probe (dsDNA)
DNA 1: TCCAACACGTCGGCCTCCCAAACGCAATTTTGAGGCATGGACGTGGAAAGGG
DNA 2: CCCTTTCCACGTCCATGCCTCAAAATTGCGTTTGGGAGGCCGACGTGTTGGA
B2: g3857 (TAG-lipase) promoter probe (dsDNA)
DNA 1: TGGGCTCGGACGCGACGCGGGCTTTGGGCTCGGACGCGACGCGGGCTT
DNA 2: AAGCCCGCGTCGCGTCCGAGCCCAAAGCCCGCGTCGCGTCCGAGCCCA
B3: g9477 (actin) control probe (dsDNA)
DNA 1: TTCGATAAATGGGGCCGATAAGTGAGGGAAGATGATTTGAGTAAAGTA
DNA 2: TACTTTACTCAAATCATCTTCCCTCACTTATCGGCCCCATTTATCGAA
B4: g2171 (PAP) promoter probe (dsDNA)
DNA 1: ACCGCTCCTTACGTGGTTAACATCACCGCTCCTTACGTGGTTAACATC
DNA 2: GATGTTAACCACGTAAGGAGCGGTGATGTTAACCACGTAAGGAGCGGT
B5: g4867 (hsp70) control probe (dsDNA)
DNA 1: TGTGGGGCCTCAGATAAAGGTGCGGCACGTAGGGAGAGACATTG
DNA 2: CAATGTCTCTCCCTACGTGCCGCACCTTTATCTGAGGCCCCACA
B6: g5641 (FAE) promoter probe (dsDNA)
DNA 1: TGGATTGATGGACGTGGAAGCAGCTGGATTGATGGACGTGGAAGCAGC
DNA 2: GCTGCTTCCACGTCCATCAATCCAGCTGCTTCCACGTCCATCAATCCA

For one series, the target named is T1, MBP-NobZIP77. Description: EMSA; shift reduced by 100-fold unlabeled promoter DNA; LightShift Chemiluminescent EMSA kit binding buffer (composition, salt and pH not stated), 30 min; light series: 5 nM probe, 25 °C, 60 min, NobZIP77 1:2 dilutions from 24 mM (so in the source); 6% native PAGE at 4 °C. The following applies: protein: recombinant; tags: MBP (pMAL-p4X); chain copies: 2; label: 5' biotin; blunt. In general terms: A gel shift assay detects complexes by their altered migration in electrophoresis.
With B1, the binding result was “binds”.

Regarding B2, the binding result is “binds”.

The target of a further series is T1, MBP-NobZIP77. Description: EMSA; LightShift Chemiluminescent EMSA kit binding buffer (composition, salt and pH not stated), 30 min; light series: 5 nM probe, 25 °C, 60 min, NobZIP77 1:2 dilutions from 24 mM (so in the source); 6% native PAGE at 4 °C. The following applies: protein: recombinant; tags: MBP (pMAL-p4X); chain copies: 2; label: 5' biotin; blunt.
As for B3, the binding result is on record as “no binding”.

B4: the binding result is “binds”.

Turning to B5, the binding result is reported as “no binding”.

B6: the binding result is “binds”.

The values are drawn from publication PMC8964759, “Exploring a blue-light-sensing transcription factor to double the peak productivity of oil in Nannochloropsis oceanica”.
